From FireProtDB (doi:10.1021/bi00416a052)

B1: Ribonuclease HI, P0A7Y4 (parent)
chain: MLKQVEIFTDGSCLGNPGPGGYGAILRYRGREKTFSAGYTRTTNNRMELMAAIVALEALKEHCEVILSTDSQYVRQGITQWIHNWKKRGWKTADKKPVKNVDLWQRLDAALGQHQIKWEWVKGHAGHPENERCDELARAAAMNPTLEDTGYQVEV

Variants of: B1
Details: Escherichia coli (strain K12), Thermal, CD, NaCl 0.1 M, reversible: yes, structure 2RN2, whole UniProt chain shown
[1] = pH 3, 49.8 °C, glycine-HCl 10 mM
[2] = pH 5.5, 52 °C, Sodium acetate 20 mM

Variant	ddG of mutation (higher = less stable) [1] [kcal/mol]	Tm (pH 3, glycine-HCl 10 mM) [°C]	change of melting temperature, mutant - wild type (higher = more stable) (pH 3, glycine-HCl 10 mM) [°C]	ddG of mutation (higher = less stable) [2] [kcal/mol]	Tm (pH 5.5, Sodium acetate 20 mM) [°C]	change of melting temperature, mutant - wild type (higher = more stable) (pH 5.5, Sodium acetate 20 mM) [°C]
V74A	2.2	42.2	-7.6	3.4	39.3	-12.7
V74I	-0.7	52.2	2.4	-0.6	54.1	2.1
V74L	-1.1	53.5	3.7	-0.9	55.3	3.3
